This data set can be described thus: label from the status in PepcDB records.
Regarding “MAIARALRDELSFGAVSRRENPVSAHIPYSRHVSDEVIKTQDGMLMSFVHMSGLCFETIDIAEINSRLLGRNDLIRGLANSRYAIYSHIVRREVKPAIESSFENKFCQELDQRYTAALRTQRMFVNDIYLTIVRRELQGTVGTADLVIRKLLGRRAADGRSSSEERALIELTDVMKAVRESLQAYGARVLTVVKRNDVWHSEPLEFLVQLVNGGFPRPMALPRMKLAEALATKRLFFGPNALEIRGAFPGETRYGAIISVGEYPSITGPGMLNPMLKVPHEFIVTQSFAIIDKPQALTQMERVGRKIDMSDEADSIVGDQLGEARDELLSSEALYGLHHLTVLCLGKTMDDVARCVTDVGTALTEVSALWVREDLNCEPAFWATLPGNFAYVARKSMISSKNMAGFSAFHNYPSGRTGGVHWGMPISVLETTSQTAYFFNFHVRDLGNFTLNGPSGSGKTVLLGFLAAQAQRITPRPKLVMIDKDRGLDIFVRSLGGRYEVLKAGEPSGFNPLRLPDTPRNREFLFQLFSFILRRSDGYAHSTREEQVIRNAIAQVASAPPEGRTMEEFAELLRGAMRAGDDDLYSRLQPWMRPDQRGWLFNNAEDSFSMSSIFGFDMTSVLSDATTSTAALLYIFHRIEELLDGQPVMIFLDEGWKLLDNDIFSYFIKDKLKTIRKLNGIIGFGTQSAADIVKSSIANTLIEQTPTNIFFPNPKADEESHRAFGLSEREIKWIRETPPEARKFLIKHDQDSVIARLNLGAMPDAIKILSGRIETVQELDALRARVGDDPDVWLPVFLGRDPE”, the protein production result is given as “failed”.
Take “MAIEGKTTDVANKRIRLGMVGGGSGAFIGGVHRMAARLDNRFDLVAGALSSTPEKSLASGRELGLDSERCYGSFEEMAEKEALREDGIEAVAIVTPNHVHYPAAKAFLERGIHVICDKPLTSNLEDAKKLKDVADKADALFILTHNYTGYPMVRHARELVEAGALGNIRLVQMEYPQDWLTEAVEQTGAKQAVWRTDPAQSGVGGSTGDIGTHAYNLGCFISGLEADELAADVHTFVEGRRLDDNAHVMMRFKPKGGKQPARGMLWCSQVAVGHENGLKIRLYGDKAGLEWTQADPNYLWFTKLGEPKQLITRGGAGAGAAAARVTRIPSGHPEGYLEAFATIYTEAAHAIEARRTGSALDKAVIYPTVDDGVKGVAFVTACIESGKKNGGWVKL”: the protein production entry is listed as “failed”.
Regarding “MAIFMSYVLLGLSLAAPIGPVNAAQLDRGIKNGFFHAWLVGLGAITADVIYMLLVFFGLVHFLQLPFMQTFLWLFGFFVLVYTGIETISSVNHLKEATNMRTSETYRKSFIYGFLMSISNPLTILFWLGIFGSVLAKTASVYGPAQLVFYSSAILIGLLLWDVAMAGIASGARHMLTPARLKIVSILSGLTLIGFGVYFGLQACRVLFG”, the protein production entry is “failed”.
With “MAILHSVSYGTSDNTLVFIGSLGSTTDMWLPQLDALHKDFRVIAVDHRGHGLSELIEGTPTVADLAQDVLDTLDDLGVGNFGVIGLSLGGAVAQYLAATSDRVTKAAFMCTAAKFGEPQGWLDRAAACRENGTGSLSEAVIQRWFSPTWLENNPASREHFEAMVAGTPSEGYALCCEALATWDFTDRLGEITVPVLTIAGADDPSTPPATVQIIADGVGGESRAEVLSPAAHVPTVERPNEVNELLAQHFA”, the protein production entry is “failed”.
Take “MAIMRHGLAASVMGTALAMVVAVLPAGCANGQVGEANRPGTTPPSEIALAPSGLGSYLAARHAEAEGDTEAAAAFYLTALADDPDNLNLLRRAYFFNAVEGKVGEAAELASRLMVSDPTATIAPLVISADLAKRGQMREAATLINGQNRQGLNSFLVPVALAWARAGAGDAGGAMTALDELSKNAGYATLRALHGALLQEQLGNKAKAGELYEAYVKGGERPSLRGVQLAGGFFVRTGQAARARALAADYSQRFPDSLLLDNAVAGFAEGGTPPAPEVGTAKDGMAELYYGTASLLADNDLQTATMFNRLALHLRPDFPLAQLLLGQLLAGQNRHDDAIAAYRGIESHDTLMLAAGLAEAESLRAQGKIDDAVVEFDKLAAHFPSRPDPLIEKGDLLRQDQRFAEAATAYSAAIARMGAPDPRHWAVYFGRGVAYERTDRWPLAEQDFQTALRLNPDQPFVLNYLGYSWLDNGINVDQAKQLIERAVAQRPKDGYIIDSLGWAHFRLGEYAEAVGILERAIHETPDDATINDHLGDAYWMVGRRLEARYQWERALSLADDADLSASIQKKLDTGLSPPSPVVPRSAGRPAERQPTSATP”: the protein production entry is given as “failed”.
In the case of “MAINIIEYNRSYKEELIEFILSIQKNEFNIKIDRDDQPDLENIEHNYLNSGGQFWLAINNHQNIVGTIGLIRLDNNMSALKKMFVDKGYRNLKIGKKLLDKVIMTCKEQNIDGIYLGTIDKFISAQYFYSNNGFREIKRGDLPSSFPKLDVDNRFYYRNLKD”, the protein production result is “not failed”.
Take “MAIRLTHLRKPLAYSRSFDVCIPFFRSISSFEAVEKAIKCAVETKEYLRIPELVVSLKEPYQNSTLFSFLSAFQRHHRIRVIDEILQSFVPVRPRSLPKIVYSSLLTYCLQSSDPLPLSFAILQRTLRSGCLPNPQTHLLLSDAWLERRRGSQSVADIINEMKLIGYSPDTGTCNYLVSSLCAVDKLDEAIKVVEEMSAAGCIPDVESYGAVINSLCLARKTTDVVKIVKEMVSKAGISPRKGMLTKVAAALRANREIWKAIEMIEFVESRDYPVEFESYEVVVEGCLEVREYILAGKVVMRMTDRGFIPYIKVRQKVVERLINIGEWKLACTVRQRVSELRS”: the protein production entry is given as “failed”.
For the sequence “MAIRRCYIAQNPKSSCRFNCVRERFEDLRGVPCLVYEGETRDWINAALFLEDENESEDRKRFVLHTSHSALLYMEYDLTSNADCTVLELARCTDSSILYYTKLHGSSFNKLAIISGNAFGELLVWQTQFPTESDPKSVMKTYPLLLRIEAHNGVIHSIEFDLQSQLLVTTSDDRSVKFWNIQKSGDWTTAEIKPMFSCYGHSSRVMCVVILKIDDRTFVASGGEDSYVCIWSSSGELILKRRQQFGAPIWRLGFSQDAEILYSTSSTGNLVGQNLKEVLNRPKIESTILSSLGDANEFVRNLKFVNNEIIVGLSSLNRLYYTRISPDSSHENKWLMVNDFPSYKRTVLEVFDDIIATCGHRRITLHRDRYLVSDNLGYCLLLQTHQLHIESHIALFNNREPWITAALLISEQYLLLGNREGHVMLYCRSSASDDFQLKDSIRYLHGKMGSNFFKLLSLNADNAHVMSGGHEAFLKYLSVRFSDSTLRVSQREGIPLAWVEASPSDDLILGFNDNHIVAWSRRNDILLQLACGGGHRCWDFRLSDGDSQLSIAYVKQKRVYFYRNSLYNAVDNRLKDIEPNNWHVRNCNTLRLITPRNQSDPFILSAGDDNIIKVTQVTNDSLSQRAEMHSHISTVRSLQAIPYKSNGGDSSTWLVFSVGGRSQLCISQLSIDASNKCWISEISSHTLHNVAASKTSTIEARLMAIDVVQHSDGDLFSIYVAGGDGNISHYIWELETPNQLDLKHFVDIQRCPLGIQWIASKGMLLVSTTNGEVYGFDRTLETTYFQLQLHVTGINTIDIYVDRHLLHILSGGDDESIKYTVLNLNNNNVEQKIEYLGLHNAQVNALAIHCPTKSVAASELFAYTCSIDRQIYRIDLSTHKYKRVGYTCIADVKGMLLDEHQRMYFYGCGLQTMSISNIL”, the protein production entry is given as “failed”.
As to “MAIRSALMNVMLIAVKKAAKGLVRDFGELENLQVSRKGPSDFVSNADLKAEKILKAELRKARPAYSFLMEESGAEDGADTSRRWIVDPLDGTTNFLHGIPHFAISVALEEKGEIVAGVIYNPILDELYTAEKGNGAFVNDRRLRVSGRRDLAESLFATGIPFQGKGGHARFLGQLAKVMAKTSGVRRIGAASLDLAYVAAGRVDGYWEEGLHPWDCAAGILLVKEAGGYVTTLDGKPDPLRQGSLLAANPLMHPLLGELLAEE”, the protein production entry is reported as “failed”.
As to “MAISIRTMAALSMVGLRGKRDVQQYSEWISQPCRPAMKGFRPGIGPTLVVLLLLPVLVALGFWQLGRGEQKRQLLASYAERRAAEPVALFELLASEDPAFRRVRLHGHFDADHSLLLDNRLHDGKVGVELLQPFLDQASGRWLLVNRGWLPWPDRRTPPVFSTPQQSLSLDAWVYVSPGAAFQLHADPSGASWPRLITAVGPQALWAELGRSGFDHEVRLESGPGAYLTEWPVVAMGPEKHQAYAVQWFAMALALFALYLYFGWHNTREKRHGNGHESTQHL”, the protein production entry is recorded as “failed”.
Consider “MAIVGTILFAFYSVAIAAAWFFFGQNQTILAIAIVGSVVLVGVQYKVGKWMALRSVGAEDMDEQEFPRIHRRVESLSRDMGIKKPTLKVANMGVPNAFAVGRKGNGTVVVSRELIDILEHEELDGVLAHELSHIANRDVVTMQLGQGIASIVGIVAQYIVLFSGDNDLADFFLAIVVGNLVQFLVTLFVLAISRYREYVADADARRAIGTGEPLARALEKISQGNEQAAQQQRQRTSRGRGRRQRGQRNDDGLDQQVSALCISSPDTSVLQKLVSTHPPTEKRIQRLRS”, for which the protein production result was “failed”.
On to “MAKAVASQEVANMLNDWYILMKKRDISGSIEMKDDIDKAIEKMEEDHDVLLYYQMLDFRLRLLLEDISQSSTEKLEAISFKDKDPKSTDDKLNYYFYLFKGIYEDYKQNHTEALNFFRIAEKRLSVIQNEIEKAEFHYKIGVLYYNLKATWLSIHHINIASGIFQGYDGYAKRVINCKMLIGLNYIDQFKFAESEVLLKEAIEKTEKIGDQYLLPYTYYNMGFLKSKEDKHEEALKYYNKAFAIKDFETKAKYAYLLCVYENTRSLFKTNDPDQAFKWIDTGFKKAQEVNSEIFELKFKTLYTLHSDCQNKLEVIKDFIHQLEDKKAWVDLEELLMDVANYYRENKLYEEAIYFYIKTDKASKLAGRGGE”, for which the protein production entry was “failed”.
In the case of “MAKEGEHSGAKEVKLTKPKISLSDLTFVIYVTTREKLSSSTISCEEIPLKKCGAELECGSNDRFHIQVENLSHMGISKSRMAGVKIECEVIYKEDSEDEAVVRIVNAERPLGTNFGWLNNDLLAPLAHRGLTAEIQLSFNSELLDKIDLQIFHRGEGRYFSQDDTLGYLQCFFPSKI”, the protein production result is recorded as “failed”.
For the sequence “MAKGDVITLNFETFVDSDTQVKVTRLTPTDVICHRNYFYQKCFTQDGKKLLFAGDFDGNRNYYLLNLETQQAVQLTEGKGDNTFGGFISTDERAFFYVKNELNLMKVDLETLEEQVIYTVDEEWKGYGTWVANSDCTKLVGIEILKRDWQPLTSWEKFAEFYHTNPTCRLIKVDIETGELEVIHQDTAWLGHPIYRPFDDSTVGFCHEGPHDLVDARMWLVNEDGSNVRKIKEHAEGESCTHEFWIPDGSAMAYVSYFKGQTDRVIYKANPETLENEEVMVMPPCSHLMSNFDGSLMVGDGCDAPVDVADADSYNIENDPFLYVLNTKAKSAQKLCKHSTSWDVLDGDRQITHPHPSFTPNDDGVLFTSDFEGVPAIYIADVPESYKHLEHHHHHH”, the protein production result is “not failed”.
Regarding “MAKHEQILVLDPPSDLKFKGPFTDVVTTNLKLQNPSDRKVCFKVKTTAPRRYCVRPNSGIIDPGSIVTVSVMLQPFDYDPNEKSKHKFMVQTIFAPPNISDMEAVWKEAKPDELMDSKLRCVFEMPNENDKLND”, the protein production result is given as “not failed”.
For the sequence “MAKHRLDALLVERGLCPSRQQAQRLIRAGEVRVAQAIVDKPGSLVAEDAVIEVAAKPPYVSRGGEKLAKALATFPIALSDRICLDAGISTGGFTDCLLQAGASKVYGIDVGYGQVDWKIRTDPRVLLRERTNIRNLQPTDLYGSDDVWPDLAVADLSFISLTKVLLTLGQLLRSPRELILLVKPQFEVGREKVGKGGVVRDRKDHVTAIAQVLESAQGLGWHGQGLTWSPLLGPAGNVEYLLWLSEAETTWAGDRAAIEALTTEAIATLRAGLEHHHHHH”, the protein production entry is recorded as “not failed”.

For the origin of these results see a protein production outcome set (Wang et al. 2014).
